Experiments:
[1] = tested on: MIA-induced degenerative arthritis model; assay: MIA-induced degenerative arthritis model; format: in vivo, C57BL/6J mice; details: for weight bearing ratio: 2 weeks and 4 weeks after MIA injection; for diameter of the knee joint: day 1 after MIA injection, i.p.; for thickness of the knee joint: days 3, 5, and 7 after MIA injection
Description: As a degenerative arthritis model, 9-week-old specific pathogen free (SPF) male C57BL/6J mice were anesthetized, the area around the right knee joint was cleanly shaved, and 10 μL of MIA solution (monosodium iodoacetate 0.5 mg in 10 μL 0.9% sterile saline) was injected into the knee joint cavity to induce arthritis. From 3 days before MIA (monosodium iodoacetate) solution injection, Amuc_1409 or PEP001, PEP002, PEP003, PEP004, PEP005, PEP006, PEP007, PEP008, PEP009, PEP010, PEP011, PEP012, or PEP013 was dissolved in PBS buffer at a concentration of 6.7 μM and then injected into the mouse peritoneal cavity at 150 μL per animal once a day at the same time. On day 3 (0 days) after administration of Amuc_1409 or PEP001 to PEP013, an additional intraperitoneal injection was given 1 hour before MIA injection, the drug was intraperitoneally injected once a day at the same time after MIA injection, and the experiment was terminated on the 30th day after MIA injection. In the control group, the same volume of PBS buffer was injected intraperitoneally. After MIA injection, the diameter of the knee joint was measured using a caliper for 7 days at 2-day intervals (0, 1, 3, 5, and 7 days) to evaluate swelling caused by inflammatory changes of the joint. […] At this time, the weight bearing on the limb was lower as arthritis was more severe. The weight-bearing weight (g) of each of both paws was measured, and in this experiment, the value was expressed as the ratio (%) of the right hind limb with arthritis to the total hind limb. Weight bearing ratio (%)=weight-bearing weight of right hind limb with arthritis (g)/weight-bearing weight of both hind limbs (g)×100 After termination of the experiment, the test animals were sacrificed, then the knee joint tissue of the mouse was fixed with 10% neutral buffered formalin, and the bone was decalcified with a 0.5 M EDTA solution. Next, the joint tissue was embedded in paraffin to prepare a 5 μm joint section, and Safranin O staining was performed to histopathologically analyze the degree of damage to the cartilage tissue. At this time, the degree of damage to the cartilage tissue was evaluated by examining the degree of safranin O staining of the sections and scored according to OARSI (Osteoarthritis Research Society International grade) guidelines. The scoring criteria according to the OARSI guidelines are as follows (Table 1). [table]

[2] = tested on: animal model of metabolic disease accompanied by obesity/diabetes and chronic inflammation; assay: High-fat diet obesity/diabetic metabolic disease model; format: in vivo, C57BL/6J mice; details: for fasting blood glucose: after fasting for 16 hours at the end of the test; for blood glucose in insulin resistance experiment (ITT): after insulin administration, time as stated in the value; for body weight: oral, 3 weeks on high-fat diet
Description: An animal model of metabolic disease accompanied by obesity/diabetes and chronic inflammation was induced by feeding a high-fat diet.
The experiment in the groups administered with Amuc_1409 or PEP001 to PEP005 was performed using 8-week-old SPF male C57BL/6J mice, and the metabolic disease accompanied by obesity/diabetes and chronic inflammation was induced by ad libitum feeding of a high-fat diet for 45 weeks or 8 weeks. Specifically, mice fed a high-fat diet for 45 weeks were fed a high-fat diet for an additional 3 weeks, and Amuc_1409 was dissolved in PBS buffer at a concentration of 2.4 μM and then orally administered to the mice by 150 μL per animal at the same time once a day until the end of the experiment, or mice fed a high-fat diet for 8 weeks were fed a high-fat diet for an additional 3 weeks, and PEP001, PEP002, PEP003, PEP004, or PEP005 was dissolved in PBS buffer at a concentration of 2.4 μM and then orally administered to the mice by 150 μL per animal at the same time once a day until the end of the experiment. To the control group, PBS buffer was orally administered in the same manner.
For the experiment in the groups administered with PEP006 to PEP013, 8-week-old male C57BL/6J mice were used, and the metabolic disease accompanied by obesity/diabetes and chronic inflammation was induced by ad libitum feeding of a high-fat diet for 32, 50, or 53 weeks. Mice fed a high-fat diet for 32 weeks were fed a high-fat diet for an additional 3 weeks, and a novel tetrapeptide PEP006 was dissolved in PBS buffer at a concentration of 0.15 μg/150 μL (PEP006) and then orally administered to the mice by 150 μL per animal at the same time until the end of the test, mice fed a high-fat diet for 50 weeks were fed a high-fat diet for an additional 3 weeks, and a novel tetrapeptide PEP007, PEP008, PEP009, or PEP010 was dissolved in PBS buffer at a concentration of 0.2 μg/150 μL (PEP007 to PEP013) and then orally administered to the mice by 150 μL per animal at the same time until the end of the test, and mice fed a high-fat diet for 53 weeks were fed a high-fat diet for an additional 3 weeks, and a novel […] PEP011, PEP012, or PEP013 was dissolved in PBS buffer at a concentration of 0.2 μg/150 μL (PEP007 to PEP013) and then orally administered to the mice by 150 μL per animal at the same time until the end of the test. To the control group, PBS buffer was orally administered in the same manner.
For all animals, general symptoms were observed immediately before administration at the start of administration, and the body weight was measured until the end of the test after group separation.
Insulin (Humalog, 1 unit/kg) was intraperitoneally injected into mice fasted for 4 hours at 2 weeks after the start of test substance administration (2 weeks in groups administered with Amuc_1409 and PEP001 to PEP005 and 3 weeks in groups administered with PEP006 to PEP013), and then blood glucose at 30 minutes, 60 minutes, 90 minutes, and 120 minutes was measured from a small amount of blood obtained through a wound at the tip of the tail using ACCU-CHECK (Roche), thereby performing an insulin tolerance test (ITT).
At the end of the test, fasting blood glucose was measured from a small amount of blood obtained through a wound at the tip of the tail of the mouse fasted for 16 hours using ACCU-CHECK, and blood was collected from the orbital venous plexus using a heparin-treated capillary tube. The collected blood was immediately centrifuged at 10,000 rpm (4° C.) for 10 minutes to separate plasma, and then subjected to analysis of total cholesterol (TC) and low-density lipoprotein cholesterol (LDL-C), which are blood abnormal lipid indicators, using an automated blood biochemical analyzer.

| Molecule | weight bearing ratio ([1]; vs PBS buffer group) | diameter of the knee joint ([1]; vs PBS buffer group) | thickness of the knee joint ([1]; vs PBS buffer group) | fasting blood glucose [2] | blood glucose in insulin resistance experiment (ITT) ([2]; vs PBS buffer group) | body weight ([2]; vs PBS buffer group) | AUC value of the insulin resistance experiment ([2]; vs PBS buffer group) | LDL-C level in blood ([2]; vs PBS buffer group) | TC (total cholesterol) level in blood ([2]; vs PBS buffer group) | abdominal fat ([2]; vs PBS buffer group) | histopathological findings in knee joint tissue, safranin O staining ([1]; after termination of the experiment) | degree of cartilage destruction by OARSI score ([1]; vs PBS buffer group) | maintenance of the decreased blood glucose in insulin resistance experiment ([2]; until 120 minutes after insulin) |
| --- | --- | --- | --- | --- | --- | --- | --- | --- | --- | --- | --- | --- | --- |
| GAY [PEP005] | significantly increased | tended to decrease | significantly decreased | decreased | decreased at 30 minutes after insulin administration | significantly decreased | decreased | significantly decreased | tended to decrease | decreased | – | – | – |
| Amuc_1409: SEQ ID NO: 15, functional fragment obtained by eliminating the leader sequence from SEQ ID NO: 14; protein derived from Akkermansia muciniphila (protein, Amuc_1409_fragment, protein derived from Akkermansia muciniphila) IPESSVPAAAVSSIKGAYPNAGPIEWDSEMHGMERIYEAEFRINGFQFDVKIAPDGKIVRIKEEIAASSLPEAVRASVLKRYPGCRIKEAEKITEGELVRYKVEVADSRDDYDVLIAPDGNILHVDR | significantly increased | significantly decreased | significantly decreased | significantly decreased | decreased from 30 minutes to 120 minutes after insulin administration | decreased from the initial body weight | decreased close to a significant level | – | – | significantly decreased | only a slight loss of safranin O was observed in the cartilage zone and the overall cartilage morphology was maintained | significantly decreased | significantly maintained until 120 minutes |
